{"source": "paper PMC8445988", "about": "“Characterization of two β-galactosidases LacZ and WspA1 from Nostoc flagelliforme with focus on the latter’s central active region” (Scientific Reports, 2021)", "proteins": {"B1": {"name": "Nf-LacZ (β-galactosidase LacZ of Nostoc flagelliforme) (enzyme, UniProt A0A2K8T1B7 1-619, looked up)", "chain": "MKLLDIQKRKVESPSNRDNQRVSSFPEAGYPRPQLQRSHWLSLNGLWKFAFDNEGRCVQPGDIEGWTHHIQVPFAPESTKSGIGDTGFHPNCWYEREFETPEGDGRLLLHFGAVDYRARVWVNGQYMIEHEGGHTPFTLDITTVLNDTGITKVTVWAQDDPGDLAKPRGKQDWQLEPHSIWYPRTSGIWQTVWIERVGRTYIDSIRWSPDFERWEVGCYAAIAGDAPAGIQIKVKLSIGNTVLANDTYEVFNGEIGRRISLSDPGIDDYRNELLWSPEKPTLMDAHIELWHNNQLLDEAKSYTAMRTVGIQRDRFMLNGRPYYLRLVLDQGYWPDSLMTAPDDGALRRDVELTKAMGFNGVRKHQKIEDPRFLYWADKLGLLVWEEMPSAYRFTPKAVERTTREWAEVIRRDISHPCIVAWVTFNESWGVPNLVETAAHRNYVLAMYHLTKTLDPGRPVIANDGWESTDTDILAIHDYDTHPQRLGHRYGPEVKLSDLFDRKRPGGRILTLDNFPHQGQPVMLTEFGGIAYAPVDNPDADKAWGYERCSNISELEIKYATLLETINDIELFSGFCYTQFTDTFQEANGLLYADRTPKFPIEAIRAATLSGQGLCTPTSC", "notes": "β-galactosidase LacZ homolog of Nostoc flagelliforme, NCBI AUB41471, gene COO91_07519 (KEGG); 619 amino acid residues, calculated 70.8 kDa; The number of chains in the multimer is left open (at least a trimer or larger); also called COO91_07519; AUB41471"}}, "key": {"[1]": {"biological_target": "the molecule itself", "experiment": "SEC; gel filtration on an FPLC system (AKTA purifier), 20 mM Tris-HCl, 150 mM NaCl, 10% glycerol, pH 7.5; five molecular weight markers (200, 150, 66, 29, 12.4 kDa); absorbance at 280 nm"}, "[2]": {"substrate": "O=[N+]([O-])c1ccccc1O[C@@H]1O[C@H](CO)[C@H](O)[C@H](O)[C@H]1O", "experiment": "purified protein"}}, "data": [{"protein": "B1", "values": [{"measurement": "stoichiometry N", "setting": "[1]", "result": "≥ 3"}, {"measurement": "Km", "setting": "[2]", "result": 500, "unit": "µM"}]}]}
